Measurements published in the DeepSol protein solubility set.

Experiment: soluble on expression in E. coli; label from the status in PepcDB or PDB records

Row | Sequence | soluble on expression in E. coli
1 | MGSDKIHHHHHHMMGKTEYLDYYSGKRVLVTGGAGAVGSNLVRRLLDLGAFVIVIDNLSSGYTWLLPQDAPNLLFIEGDITNDVDLKRVFNEEPEIIFHLAAFFANQNSVDYPEKDLWVNGFGTLKLLEYTRIYGKVERFVYASSGCSIYPSDAPMPFKEDLPISSWMSTPYQITKALGELYCNYFYKMYDIPITKARFFNSFGPGEVPGQYRNVIPNFIYWAMLGKPLPITGTGEETRDFTYVGDIVDGLLRMGYYREAIGEAFNLAAGREVKIKYLAEKVNELTGNTAGIVFKPRRKWDTKPRMLASNEKAKKVLGFNPDPDFDGRLAETVEWFKQNWELIKKSAEFGPGVSSAVR | not soluble
2 | MLVVLAISLAVTAVCAQYGSGPANNPPASSYSSNVYYPPPVYGSVYWDYDSGSREHRHKQCPRLRAYVGEFPGIPEEAFYPPIIRYVKYNRKVTALVVCDRDEKNLNFLFARHNKTRDVRSASVVAIGSTAGVTLVCNRDDRRYEGFVIDMNATTNGFSKKIEITQLTCLGLDKTIIGLPVEHGVQQLAQKIQEILEDDFFVPVIPSRRKRQAGGATANSAESTTEAADTESTTEAAATETPAAESTTTEASATDAAATEASATDAAATEGAVTKAAAGVTEESATEVITVATTPASPDAALNNAINELGKILGQVF | not soluble
3 | MVGVLFTFFAWCQRDRDVVGTPFVSIRGIFQADHRAWCENRRRELTKPDGWMSLIGLHWLGPKAHYIGSSPDNGIRLAMGPPDMGMIERDGDVVWFTPHAGVPLTVDGQPLRGRVRVFSDADLTPTTIGFDDGKGWLTLLRRGDRFALRVKHVNAPSRLHFTGLEYWPSDPEWRISARYLPNKAGATLSIFNIVGMTANVPNAGVIAFERLGHTYRLQAIRAAGQALFVMFADRTSGHGSYPAGRFLEVDAPDKQGSVVLDFNRAYNPPCAFTLFTTCLLPPSENRLNLAVTAGEKAYHVSTVLPLEHHHHHH | not soluble
4 | MEELFCIGCGIQIQTEDKEKAGFTPAAALKKGMETGELYCQRCFRLRHYNEITDVHITDDEFLRLLHEVGDSDALVVNVIDIFDFNGSIIPGLSRFISGNDVLLVGNKKDILPKSVKDGKVTQWLTERAHEEGLRPLDVMLTSAQNKYAIKDLIGRINELRNGRDVYVVGVTNVGKSTLINAIIQEITGNKDVITTSRFPGTTLDKIEIPLDDGTFIFDTPGIIHRHQMAHYLSPKELKIVSPKKEIKPKTYQLNPEQTLFLGGLARFDFINGERQGFTAFFDNQLELHRTKLAGADAFYDKHVGTLLTPPDKKELTAFPKLVRHEFTIDQKMDIVFSGLGWIRVNGQKDSKAIVAAWAPEGVAVIVRKAII | soluble
5 | MAHHHHHHMALTTDYSKLGELIHQSPESPSLYNQAKYHTQKQNDSFYEIKRFMCLGSTIPDDAQYSVDLLIDRGDKKCRDVLAESFRVEGYKYATTNNDDNVRFAKLFFDHYANMFYCMHLHGDDRKCNSLFRHFYEAVGKQTR | not soluble
6 | MGHHHHHHSHMGTVKQLLLFSETEGNPCFLDICGNFLVVGTDLAHFKSFDLSRREAKAHCSCRSLAELVPGVGGIASLRCSSSGSTISILPSKADNSPDSKICFYDVEMDTVTVFDFKTGQIDRRETLSFNEQETNKSHLFVDEGLKNYVPVNHFWDQSEPRLFVCEAVQETPRSQP | soluble
7 | MGSDKIHHHHHHMKRRDFLITSAAALSFLLSGCAIGDRVVEEPLTPKSNPPRKSVVYVLKTERREEAVSKLMQNFSDFEGSTVGLKANYNSADPFPASTHPKTLSAIVDVLKEQKAEVFMAERSGMGNTSAVLKTMGILDLAREKGFTVIDLDSYDGWVLHQPEDSHWKKGYPFADIFLTVDSVIQTCCLKTHRFGGHFTMSLKNSVGMVARRWKGHDYMSELHTSPHMRKMIAEINVSYSPKIVIMDAIKGFSHGGPERGTVIEPGLMIASNDRVAIDAVGVAILRIHGTTPEVSKGSVFEQEQIARAIEIGLSSGEFEIIPANDDAEKICSEIEAVLWG | not soluble
8 | MGGSHHHHHHGMASALSWKEARCQPAFLKDQARAIRLPPVDACRTQVRHGTGWGREPGILTGWGRRARDPDLGALPPGIQAAFCPGLPRCIEIELVHTAP | not soluble
9 | MSLGQIKGDLHMHSTWSDGAFSIREMAEACIKKGYQYMAITDHSQYLKVANGLTAERLKQQAKEIDALNAEFENFRILKGVEMDILPDGTLDYDDDVLAEMDIVIASIHSSFNQPEHVIMKRLETALTNKHVDIIAHPTGRLIGRRAGYEIDIDQLIELARKTNTALELNANPARLDLRTEHLMKANEQGVTLVINTDAHNIEMLDDMKTGVTAARKGWTETKNVLNARSLKDVEAFLKRNDEGHHHHHH | soluble
10 | MGIFSRFADIVNSNISALLDKAEDPEKMIRLIIQEMEDTLVEVRTNSAKAMADKKELARKVESIEQQLEDWQNKATLALTKQREDLARAALIEKQKLQHVLKGLHTEQMLVEETIEKLTGEIGKLETKITETRAKQQALAIRSQAASHRRDVQRHLHAGRTEEAMAKFEQFSRKVDELEAEADLYAQSGQARSLEQEFAELQAQDEIEKELNKLKAQMKSDQLEHHHHHH | soluble
11 | MGSDKIHHHHHHMKFVVSSNALLKQLTAINGVITTNPVVPILENFLFEIGDGMLVVYASDLQTSMITEIAVEAKAKGSIAVPAKILLDTLKNLPEQPVTFTIDPETYSIEISSDNGRYKLSGENATDFPKVPGVKNGYSVDISTEILNRAISSTIFAASNDELKPAMTGVYVSLTESNATFVATDGHRLIRYRRTDIVSEMANTLIIPKKALNLLKASLPSENTNVKIEYNASNAFFSFNNIKMICRLIDERFPDYENAIPVDNPNVLTITRTDMMNSLKRISIYANKTTHQVRLKLAGSELQISAEDLDFSNEANERLACEFEGQDMEIGFNAKFLVEMLSNLDSPQISMHFSAPNRAGIITPADKDEHEDVLMLVMPVMLNSYA | not soluble
12 | MSELLQYSRIKYECTCGKFRTLPDLVFCRYCFKIKCDDCSLGEVDNIFCPRCLEPSSVPEARLKKHKCASCNDCPKCANVLSARTENDNVYLVCQYCRWSSREANQEDQENTKSWPTKENPLVNQLGEVTAYMKRLELIENAPKDLKKGKSGKAWTAFHLKDKFGFQQMVDKRKKALAPEMNPVDAHAPTEAPTLEDEIKERTDDLRTLDQIIMQPLINISEPLLPVQVPLAGRVQVRCDECERTLIKRDFGVTTFKFKISSFARQFVPDIRMSRPVDDLKVGETSHVFLSITNLSSSAMDLTIAPQSGNGFIQCSSDPIQLLLPSSRASDTAAPGVHADQSDVIVFRQHNRVGLRLDVIPTEMDLSSPCLNLLITYCQDGSFRLSSASDKILKPEETCPDPILSANLKVDLR | not soluble
13 | GHMAKHQIGVIGLAVMGKNLALNIESKGYSVAVYNRLREKTDEFLQEAKGKNIVGTYSIEEFVNALEKPRKILLMVKAGAPTDATIEQLKPHLEKGDIVIDGGNTYFKDTQRRNKELAELGIHFIGTGVSGGEEGALKGPSIMPGGQKEAHELVRPIFEAIAAKVDGEPCTTYIGPDGAGHYVKMVHNGIEYGDMQLIAEAYFLLKHVLGMDAAELHEVFADWNKGELNSYLIEITADIFTKIDEETGKPLVDVILDKAGQKGTGKWTSQNALDLGVPLPIITESVFARFLSAMKDERVKASKVLAGPAVKPFEGDRAHFIEAVRRALYMSKICSYAQGFAQMKAASEEYNWNLRYGDIAMIFRGGCIIRAQFLQKIKEAYDRDPALSNLLLDSYFKDIVERYQDALREIVATAAMRGIPVPGSASALAYYDSYRTAVLPANLIQAQRDYFGAHTYERVDKEGIFHTEWLK | soluble
14 | LSNFQGKVMMTVNATDVTDVITIPTAAGKNLCIVRAMDVGYMCDDTITYECPVLSAGNDPEDIDCWCTKSAVYVRYGRCT | soluble
15 | MGSDKIHHHHHHMHTEVQEYGLSLRWVRFIFAAKEILINMVYKVFLSLCIGLALSASAALHAQKAVSGHAPIQVETPARSSGQKHVLQLVTPKLETVRIGIIGLGMRGPGAVERFSKIPGTQIVALCDVLPERVKKTQEILVKAGLPEAAAYSGSEDAWKKLCEREDIDLVYIVTDWKTHAEMGVYAMEHGKHAAIEVPAAMTLEEIWKLIDTSERTRKHCIQLENCVYDFFELTTLNMAHQGVFGEILHAEGAYIHNLEDFWPYYWNNWRLDYNRKHRGDVYATHGMGPACQLLDIHRGDRMKTIVAMDTKAVNGPAYIKNKTGEVVADFQNGDQTTSLIRTEKGKTLLIQHNVMTPRPYSRKYQAVGTDGFADKYPLEMYCLRPAQVDSDIAPDHEKLNAHGPVSEEVKKALMEKYKHPIHRELEETAKKVGGHGGMDYIMDYRLIYCLRNGLPLDMDVYDLAEWCCLAELSRISIENGSAPVAIPDFTRGNWDKVKGYRHAMAE | not soluble
16 | MDFESNGAMMEYCKSTGRTYCAFSIQQSSKLLGTVVLELFTDIAPATCANFIKYIKDGYQGTPLHRIVPNGWVQGGDIVDGSGKGDPGFVLPDETYSVKHDAPGVLGMATGGQPHTANTQFYISLSPLPFLDGKRVAFGRVLNKQSLENLLALQTLPTFQNERPVPDVVIASCHVIYNPNS | not soluble
17 | MEEERQQSPLEGLSEEALKHVHQLDEPIPIELQASYFRLSAEMRRRGIQLSENEVQDAEQLLFDPVLSDDIKKMTLLRLAITGNITVFRIIERYLESAPDSMRPWALMAQLEARIGILSDLVDEKQLVITSGLGGHDGMMRFMAFLHTDKLQDFEHYQEELIEKELLYRIGKASGEVERLEMHNNYLLLTFLVPINYDLRNFFSSFIAECNQFGHFLSTTFIITNTQLLTPQGAQVALKKYAEENDLPATN | not soluble
18 | VTLLVKSPNQRHRDLELSGDRGWSVGHLKAHLSRVYPERPRPEDQRLIYSGKLLLDHQCLRDLLPKQEKRHVLHLVCNVK | soluble
19 | MIYNKTINGLKVFIKDNDPFYEQVLNDFLTCRVKTLKVFRSIDDTKVILIDTARGPLVLKVYAPKHKMTERFLKSCIKKDYYENLIYQTDRVRGEGIQSINDYFLLAERKTLNFAHYYIMLIEYIEGVGLNEYLEISEDLKDQLSESIKELHQHGMVSGDPHKGNFIVSEKGLRLIDLSGKKTTAVLKAKDRIDLERHYNIKNELKDFGYTYLIFKKKIKKVIRDVKVKLGLKSKLEHHHHHH | not soluble
20 | MGSDKIHHHHHHMMSGHNKWANIKHRKMAQDAKKSKIFTKLIREIIVAAREGGGNIETNPRLRAAVERARAENMPKENIERAIKRGTGELEGVDYQEVIYEGYAPGGVAVYIRALTDNKNRTAQELRHLFNKYGGSLAESGSVSWIFERKGVIEISRDKVKDLEELMMIAIDAGAEDIKDAEDPIQIITAPENLSEVKSKLEEAGYEVEAKVTFIPKNTVKVTGKDAEKVLEFLNALEDMDDVQEVYSNFEMDDKEMEEILSRLEG | not soluble
21 | MKTLFAFFILIFSNIVYAAPKAELWAYWQASNDSNTASVSHQAWQSILDRNLVQVGENALFRYAEVTKEDKTLLNDYLDQLSKLDPREFNRQEQYAYWVNLYNALTVKLILDNYPVASITKLGGLFSFGPWDEKVFTVAGQTLTLNDIEHRILRPIWKDPRTHYAVNCASLGCPNLQSQAFTAQNTERLLSNAAHTFINSSKGATLNNDTLILSSIYDWFAVDFGNKKELLIHLAQYRPELSLYSGKIDYQYDWKLNDTKEKKLEHHHHHH | soluble
22 | TDYAVTALRAWTRPLNYDIEHVYRITLATVQKDKDGKWKERSADQGKTMMQTLDLIAAYPGVEAACLQQWGGHYSSSSSNSSFQLDTVSLINVEDRMVSPDYFRVFRVYGADGSSPEEMAERFGKLHMNDLQRDYYLSRNALDYVEKVNGEGRESDRRYIGMSDSINYNMVSVVDGVQSEKSIRYNQTLRGLIPDQPKNEAESTGYISLKPITEEYISQNELISYSVYLRVSPEADTPDFKEQFVKRMKAVTKDDTYPVLTMNAVSEDRAGILADPVRQINNH | not soluble
